Source: the Human Domainome abundance scans (Beltran et al. 2025)
± gives the uncertainty stated by the source.

B1: Far upstream element-binding protein 1, residues 184 to 257; numbered along this chain, Q96AE4 (parent)
chain: GNAVQEIMIPASKAGLVIGKGGETIKQLQERAGVKMVMIQDGPQNTGADKPLRITGDPYKVQQAKEMVLELIRD

Variants of: B1
Test: abundance fitness (aPCA) (normalised: wild type 0, dead -1); higher = more abundant; growth selection in yeast, the domain comes from the species named
Settings: Homo sapiens
GNAVQEIMIPASKAGLVIGKGGETIKQLQERAGVKMVMIQDGPQNTGADKPLRMTGDPYKVQQAKEMVLELIRD [I54M] showed an abundance fitness of -0.074 ± 0.037.
Variant GNAVQEIMIPASKAGLVIGKGGETIKQLQERAGVKMVMIQDGPQNTGADKPLRKTGDPYKVQQAKEMVLELIRD [I54K] has an abundance fitness of -0.878 ± 0.067.
In the case of GNAVQEIMIPASKAGLVIGKGGETIKQLQERAGVKMVMIQDGPQNTGADKPLRWTGDPYKVQQAKEMVLELIRD [I54W], the abundance fitness is reported as -1.06 ± 0.073.
GNAVQEIMIPASKAGLVIGKGGETIKQLQERAGVKMVMIQDGPQNTGADKPLRTTGDPYKVQQAKEMVLELIRD [I54T] gave an abundance fitness of -0.723 ± 0.06.
With GNAVQEIMIPASKAGLVIGKGGETIKQLQERAGVKMVMIQDGPQNTGADKPLRGTGDPYKVQQAKEMVLELIRD [I54G] the abundance fitness was -0.913 ± 0.039.
GNAVQEIMIPASKAGLVIGKGGETIKQLQERAGVKMVMIQDGPQNTGADKPLRATGDPYKVQQAKEMVLELIRD [I54A] showed an abundance fitness of -0.807 ± 0.053.
GNAVQEIMIPASKAGLVIGKGGETIKQLQERAGVKMVMIQDGPQNTGADKPLRPTGDPYKVQQAKEMVLELIRD [I54P] showed an abundance fitness of -1.08 ± 0.093.
GNAVQEIMIPASKAGLVIGKGGETIKQLQERAGVKMVMIQDGPQNTGADKPLRCTGDPYKVQQAKEMVLELIRD [I54C] showed an abundance fitness of -0.504 ± 0.054.
GNAVQEIMIPASKAGLVIGKGGETIKQLQERAGVKMVMIQDGPQNTGADKPLRETGDPYKVQQAKEMVLELIRD [I54E] showed an abundance fitness of -0.883 ± 0.053.
Variant GNAVQEIMIPASKAGLVIGKGGETIKQLQERAGVKMVMIQDGPQNTGADKPLRDTGDPYKVQQAKEMVLELIRD [I54D] has an abundance fitness of -0.829 ± 0.075.
GNAVQEIMIPASKAGLVIGKGGETIKQLQERAGVKMVMIQDGPQNTGADKPLRHTGDPYKVQQAKEMVLELIRD [I54H] showed an abundance fitness of -1.03 ± 0.12.
With GNAVQEIMIPASKAGLVIGKGGETIKQLQERAGVKMVMIQDGPQNTGADKPLRLTGDPYKVQQAKEMVLELIRD [I54L] the abundance fitness was -0.069 ± 0.034.
GNAVQEIMIPASKAGLVIGKGGETIKQLQERAGVKMVMIQDGPQNTGADKPLRRTGDPYKVQQAKEMVLELIRD [I54R] showed an abundance fitness of -1.06 ± 0.047.
GNAVQEIMIPASKAGLVIGKGGETIKQLQERAGVKMVMIQDGPQNTGADKPLRYTGDPYKVQQAKEMVLELIRD [I54Y] showed an abundance fitness of -1.19 ± 0.17.
GNAVQEIMIPASKAGLVIGKGGETIKQLQERAGVKMVMIQDGPQNTGADKPLRNTGDPYKVQQAKEMVLELIRD [I54N] gave an abundance fitness of -1.22 ± 0.15.
Variant GNAVQEIMIPASKAGLVIGKGGETIKQLQERAGVKMVMIQDGPQNTGADKPLRQTGDPYKVQQAKEMVLELIRD [I54Q] has an abundance fitness of -0.902 ± 0.068.
Variant GNAVQEIMIPASKAGLVIGKGGETIKQLQERAGVKMVMIQDGPQNTGADKPLRITLDPYKVQQAKEMVLELIRD [G56L] has an abundance fitness of -1.28 ± 0.072.
GNAVQEIMIPASKAGLVIGKGGETIKQLQERAGVKMVMIQDGPQNTGADKPLRITDDPYKVQQAKEMVLELIRD [G56D] gave an abundance fitness of -0.803 ± 0.092.
With GNAVQEIMIPASKAGLVIGKGGETIKQLQERAGVKMVMIQDGPQNTGADKPLRITFDPYKVQQAKEMVLELIRD [G56F] the abundance fitness was -0.971 ± 0.2.
Variant GNAVQEIMIPASKAGLVIGKGGETIKQLQERAGVKMVMIQDGPQNTGADKPLRITEDPYKVQQAKEMVLELIRD [G56E] has an abundance fitness of -1.05 ± 0.076.
Work on GNAVQEIMIPASKAGLVIGKGGETIKQLQERAGVKMVMIQDGPQNTGADKPLRITKDPYKVQQAKEMVLELIRD [G56K] yielded an abundance fitness of -0.942 ± 0.07.
Variant GNAVQEIMIPASKAGLVIGKGGETIKQLQERAGVKMVMIQDGPQNTGADKPLRITIDPYKVQQAKEMVLELIRD [G56I] has an abundance fitness of -1.14 ± 0.17.
With GNAVQEIMIPASKAGLVIGKGGETIKQLQERAGVKMVMIQDGPQNTGADKPLRITCDPYKVQQAKEMVLELIRD [G56C] the abundance fitness was -1.08 ± 0.12.
Variant GNAVQEIMIPASKAGLVIGKGGETIKQLQERAGVKMVMIQDGPQNTGADKPLRITADPYKVQQAKEMVLELIRD [G56A] has an abundance fitness of -1.01 ± 0.05.
GNAVQEIMIPASKAGLVIGKGGETIKQLQERAGVKMVMIQDGPQNTGADKPLRITHDPYKVQQAKEMVLELIRD [G56H] gave an abundance fitness of -1.09 ± 0.13.
With GNAVQEIMIPASKAGLVIGKGGETIKQLQERAGVKMVMIQDGPQNTGADKPTRITGDPYKVQQAKEMVLELIRD [L52T] the abundance fitness was -0.878 ± 0.053.
GNAVQEIMIPASKAGLVIGKGGETIKQLQERAGVKMVMIQDGPQNTGADKPWRITGDPYKVQQAKEMVLELIRD [L52W] showed an abundance fitness of -0.738 ± 0.044.
In the case of GNAVQEIMIPASKAGLVIGKGGETIKQLQERAGVKMVMIQDGPQNTGADKPQRITGDPYKVQQAKEMVLELIRD [L52Q], the abundance fitness is reported as -0.97 ± 0.076.
For GNAVQEIMIPASKAGLVIGKGGETIKQLQERAGVKMVMIQDGPQNTGADKPMRITGDPYKVQQAKEMVLELIRD [L52M], the abundance fitness was -0.047 ± 0.037.
In the case of GNAVQEIMIPASKAGLVIGKGGETIKQLQERAGVKMVMIQDGPQNTGADKPNRITGDPYKVQQAKEMVLELIRD [L52N], the abundance fitness is reported as -0.746 ± 0.075.
Variant GNAVQEIMIPASKAGLVIGKGGETIKQLQERAGVKMVMIQDGPQNTGADKPVRITGDPYKVQQAKEMVLELIRD [L52V] has an abundance fitness of -0.145 ± 0.03.
Work on GNAVQEIMIPASKAGLVIGKGGETIKQLQERAGVKMVMIQDGPQNTGADKPSRITGDPYKVQQAKEMVLELIRD [L52S] yielded an abundance fitness of -0.918 ± 0.047.
In the case of GNAVQEIMIPASKAGLVIGKGGETIKQLQERAGVKMVMIQDGPQNTGADKPIRITGDPYKVQQAKEMVLELIRD [L52I], the abundance fitness is reported as -0.055 ± 0.049.
Work on GNAVQEIMIPASKAGLVIGKGGETIKQLQERAGVKMVMIQDGPQNTGADKPKRITGDPYKVQQAKEMVLELIRD [L52K] yielded an abundance fitness of -0.841 ± 0.057.
GNAVQEIMIPASKAGLVIGKGGETIKQLQERAGVKMVMIQDGPQNTGADKPERITGDPYKVQQAKEMVLELIRD [L52E] showed an abundance fitness of -0.956 ± 0.056.
For GNAVQEIMIPASKAGLVIGKGGETIKQLQERAGVKMVMIQDGPQNTGADKPGRITGDPYKVQQAKEMVLELIRD [L52G], the abundance fitness was -0.886 ± 0.037.
GNAVQEIMIPASKAGLVIGKGGETIKQLQERAGVKMVMIQDGPQNTGADKPHRITGDPYKVQQAKEMVLELIRD [L52H] gave an abundance fitness of -0.853 ± 0.099.
